Data from article PMC10462110 (bioRxiv, 2023).
Where a chain is given by its changes, count along the chain named. Read-outs that look alike come from different tables or passages of the source. Blank lines part the entries; values can stand above or below the molecule they belong to. Where no end group is shown, it is not given here. [ ]: non-standard residue; d: D form. pS = N[C@@H](COP(=O)(O)O)C(=O)O

Legend:
CHIP [1] = target: CHIP (UniProt Q9UNE7); assay: co-IP with anti-Tau-5, CHIP blot; settings: reference: GFP-tauC3; sites S416
[2] = target: GFP-tagged tauC3 S416E, doxycycline-inducible in HEK293 Flp-In T-REx cells; assay: co-IP
[3] = target: Recombinant human CHIP (C-terminus of Hsc70 interacting protein; STUB1) (human) (UniProt Q9UNE7); assay: ELISA
[4] = target: Recombinant human CHIP (C-terminus of Hsc70 interacting protein; STUB1) (human) (UniProt Q9UNE7); assay: ELISA; remark: listed apart in the source
CHIP [5] = target: CHIP (UniProt Q9UNE7); assay: differential scanning fluorimetry of CHIP; settings: reference: WT peptide; sites S416
[6] = target: CHIP, NanoBiT fusion expressed in HEK293T cells (UniProt Q9UNE7); assay: split reporter
[7] = target: T1, Recombinant human CHIP (C-terminus of Hsc70 interacting protein; STUB1) (human, UniProt Q9UNE7 1-303); assay: fluorescence polarisation
T1 sequence (looked up): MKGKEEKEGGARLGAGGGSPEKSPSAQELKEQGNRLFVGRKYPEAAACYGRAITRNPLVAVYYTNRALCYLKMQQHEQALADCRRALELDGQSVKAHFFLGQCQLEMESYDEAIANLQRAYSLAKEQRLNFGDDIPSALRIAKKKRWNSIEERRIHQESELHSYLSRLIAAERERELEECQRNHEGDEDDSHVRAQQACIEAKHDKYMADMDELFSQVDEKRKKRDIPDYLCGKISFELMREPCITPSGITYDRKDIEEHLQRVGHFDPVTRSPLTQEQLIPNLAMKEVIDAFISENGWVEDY

CHIP D134A [8] = target: T2, CHIP D134A (human, UniProt Q9UNE7 1-303, D134A); assay: fluorescence polarisation
T2 sequence (looked up): T1 sequence (looked up) with D134A

CHIP F131A = target: T3, CHIP F131A (human, UniProt Q9UNE7 1-303, F131A); assay: differential scanning fluorimetry
T3 sequence (looked up): T1 sequence (looked up) with F131A

CHIP D134A [9] = target: T2, CHIP D134A; assay: differential scanning fluorimetry

other: CHIP apparent Tm (CHIP [5]): weaker; reference 48.81 ± 0.11
Molecule: tau (MAPT); tauC3 proteoform C-terminal 10-mer ending at D421 (from UniProt P10636-8) S416E peptide (…)

Kd [3]: 780 nM
Molecule: tauC3 S416E (purified protein) (domain or fragment)

fold binding over FL tau [6]: 5 fold
Molecule: tauC3, NanoBiT fusion expressed in HEK293T cells (domain or fragment)

Ki [7]: 2410 ± 330 nM
binding result (CHIP F131A): binds
binding result (CHIP D134A [9]): binds
Molecule: Ac-SSTGEIDMVD [pS416 phosphomimetic 10-mer tauC3 peptide (SSTGEIDMVD)]

The next lines start with the molecule.

Molecule: tau (MAPT); tauC3 proteoform tauC3, C-terminus at D421 (from UniProt P10636-8) GFP-tauC3 S416E
other: relative CHIP bound, normalised to tauC3 (CHIP [1]): 0.55

Molecule: endogenous CHIP (from UniProt Q9UNE7 1-303) (enzyme)
relative amount of CHIP bound (normalized to tauC3) [2]: 0.55

Molecule: tauC3 (unmodified, produced from E. coli) (domain or fragment)
Kd [3]: 90 nM
Kd [4]: 190 nM

Molecule: natively phosphorylated tauC3 (p.tauC3) from Sf9 insect cells (domain or fragment)
Kd [4]: 700 nM

Molecule: Ac-SSTGSIDMVD-OH [acetylated 10-mer peptide corresponding to the tauC3 C-terminus (Ac-SSTGSIDMVD-OH)]
Ki [7]: 150 ± 20 nM
Ki (CHIP D134A [8]): 5.57 ± 0.34 µM
binding result (CHIP F131A): binds

Molecule: SSTG[pS]IDMVD [tauC3 pS416 10-mer peptide]
Ki [7]: 1010 ± 990 nM
Ki (CHIP D134A [8]): 1.84 ± 0.23 µM
